Experimental data as given in the supplement of paper PMC10567573.

B1: VPS39 (parent)
chain: ITEEKVCMVCKKKIGNSAFARYPN
B2: CLCN6 (parent)
chain: ILRSQLVTLLVRGVCYSESQSSAS

Variants of: B1
Assay: protein stability index of a GFP-peptide fusion (GPS, HEK-293T) (PSI 1-6); higher = more stable
Details: c terminus: a fixed tail appended
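Also: lentivirally expressed fusions sorted by FACS into six bins by GFP to DsRed ratio, PSI derived from sequencing read proportions per bin multiplied by bin number.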

Protein stability index, by site and new letter:
Y22: E 3.55 | S 2.81 | N 2.72 | K 2.82 | H 2.77
T2: W 1.77 | N 2.79 | A 2.94 | K 2.42 | V 2.67 | S 2.27 | R 2.55 | P 2.53
K12: T 1.77 | Y 1.88 | R 1.83 | D 2.63 | C 2.93 | F 1.68 | W 2.18 | S 2.36 | A 2.28
A20: K 2.26 | V 2.38 | D 2.62 | F 2.34 | R 2.62 | S 3.16 | P 2.62 | Q 2.74
M8: P 2.64 | V 3.23 | Y 1.94 | R 2.39 | L 2.65 | I 2.6
I1: E 3.18 | M 2.2 | V 2.95 | A 2.97 | W 2.33 | K 2.6 | H 2.59 | Y 2.49 | G 3.1
N16: R 2.29 | V 2.37 | F 1.58 | M 1.54 | P 2.81 | D 2.62 | S 2.35 | E 2.48
C10: V 2.84 | L 2.38 | F 2.04 | A 3.13 | E 4.15 | R 3.96
E3: I 3 | D 2.55 | Q 2.53 | K 1.44 | W 1.96 | Y 2.03 | H 1.94 | V 1.82
P23: L 2.57 | Q 2.26 | E 3.38 | V 4.25 | G 2.7 | M 1.78 | C 2.8 | K 2.13 | N 2.32 | F 1.76 | D 3.19 | A 2.38
C7: H 3.47 | M 2.79 | P 3.64 | E 4.24 | A 2.81
I14: L 2.41 | T 3.06 | N 2.38 | F 2.87 | W 2.1 | Q 2.14
S17: T 2.11 | W 2.14 | E 3.4 | N 2.17 | C 2.67 | K 2.1
K5: D 2.65 | T 2.09 | I 1.78 | E 2.62 | F 2.21 | G 2.33 | M 2.23 | A 2.63 | Q 2.42
K13: M 2.07 | L 1.64 | T 1.83 | N 2.33 | G 1.35 | E 3.04 | V 1.98 | W 1.52
F19: H 2.89 | S 2.56 | C 3.52 | R 2.91 | T 3.58 | W 2.34 | Y 3.06 | P 3.14 | L 2.28 | V 3.27
V6: D 3.48 | Q 2.48 | R 2.44 | K 2.95 | S 3.06 | C 1.95 | G 1.38 | E 2.8 | F 2.39
E4: S 1.74 | H 1.82 | V 1.91 | D 2.94 | C 1.57 | R 2.15 | T 1.83
V9: N 3.33 | G 3.1 | T 2.51 | S 3.35
N24: D 2.6 | K 2.24 | C 2.34 | I 1.86 | E 2.05 | P 2.37 | Y 2.39
K11: F 1.54 | P 2.76 | E 2.75 | W 1.69 | M 1.66 | Q 2.29 | S 1.7
G15: Y 2 | H 2.02 | M 2.23 | T 2.81 | D 2.46 | E 2.78 | F 2.35
R21: A 2.86 | P 3.02 | H 2.99 | E 3.15 | M 2.71 | D 4.02 | C 2.5
A18: P 2.19 | M 2.34 | I 1.81 | C 2.37 | L 2.4 | R 2.26

Variants of: B2
Assay: as above
Details: c terminus: a fixed tail appended

Protein stability index of substitutions, site by site:
G13: P 2.69 | R 3.25 | Q 3.06 | W 1.7 | S 2.89 | V 3.06
S22: Q 3.86 | Y 3.28 | A 1.76 | N 1.92 | K 3.18 | M 3.01 | D 1.44 | H 3.54 | V 2.66 | T 2.11 | F 4.37 | R 3.39 | P 2.17 | I 2.29
C15: R 3.44 | D 1.89 | V 5.04 | Y 4.15 | H 1.73 | G 3.11 | P 2.23 | F 4.46 | A 3.2 | K 1.13 | N 1.57 | I 3.23
A23: W 4.14 | V 1.81 | N 4.11 | Y 3 | E 2.41 | H 2.38 | K 2.29 | M 2.75 | C 2.96 | Q 3.96 | S 2.38 | I 4.16 | T 2 | D 4.03 | P 3.09 | F 3.27
Y16: K 1.32 | W 2.61 | D 2.09 | H 2.77 | R 3.34 | A 3.1 | P 3.6 | T 3.87 | V 2.94 | L 3.45 | I 2.94 | S 2.22 | N 2.37 | E 1.94 | C 2.31
E18: Y 2.54 | P 3.08 | I 3.81 | F 5.28 | R 2.1 | Q 2.09 | T 4.5 | W 2.86 | D 2.19 | H 2.13 | L 2.71 | A 2.15 | G 3.04 | M 2.09 | K 5.27 | N 3.67
S19: M 3.15 | F 3.38 | Y 2.44 | L 3.29 | A 4.08 | G 1.57 | C 3.23 | T 4.83 | P 1.82 | D 2.21 | H 3.62 | W 2.92 | Q 1.79
Q20: C 4.15 | A 4.07 | V 2.68 | H 2.27 | I 1.93 | Y 3.72 | K 4.02 | E 3.06 | G 3.74 | T 1.8 | L 2.77 | F 2.4 | W 2.38 | D 1.56
S17: R 2.36 | K 2.16 | E 2.11 | A 2.45 | F 2.25 | N 3.71 | P 2.5 | I 3.39 | G 2.54 | T 2.24 | H 3 | Q 1.98 | Y 2.78 | D 2.43 | L 4.34
V14: I 2.79 | H 2.01 | R 2.67 | T 3.29 | G 2.1 | E 1.47 | Q 3.26 | N 1.57 | M 1.59 | S 2.76 | F 2.46 | W 2.82 | K 2.87
S21: P 1.34 | N 2.81 | L 2.14 | K 2.66 | A 3.29 | Y 2.89 | W 3.14 | F 2.54 | M 2.12 | I 2.59 | E 4.5
S24: G 3.21 | R 2.78 | Q 1.85 | M 4.04 | P 3.9 | K 2.49 | F 3.24 | V 2.87 | W 2.9 | N 2.4 | D 2.68 | T 2.7
